# B1: StaO, L-tryptophan oxidase derived from Streptomyces sp. TA-A0724, SEQ ID NO: 2 (Streptomyces sp. TP-A0274) (protein)
# chain: MTAPLQDSDGPDDAIGGPKQVTVIGAGIAGLVTAYELERLGHHVQIIEGSDDIGGRIHTHRFSGAGGPGPFAEMGAMRIPAGHRLTMHYIAELGLQNQVREFRTLFSDDAAYLPSSAGYLRVREAHDTLVDEFATGLPSAHYRQDTLLFGAWLDASIRAIAPRQFYDGLHNDIGVELLNLVDDIDLTPYRCGTARNRIDLHALFADHPRVRASCPPRLERFLDDVLDETSSSIVRLKDGMDELPRRLASRIRGKISLGQEVTGIDVHDDTVTLTVRQGLRTVTRTCDYVVCTIPFTVLRTLRLTGFDQDKLDIVHETKYWPATKIAFHCREPFWEKDGISGGASFTGGHVRQTYYPPAEGDPALGAVLLASYTIGPDAEALARMDEAERDALVAKELSVMHPELRRPGMVLAVAGRDWGARRWSRGAATVRWGQEAALREAERRECARPQKGLFFAGEHCSSKPAWIEGAIESAIDAAHEIEWYEPRASRVFAASRLSRSDRSA
# notes: peroxidase-coupled assay
# B2: StaO: L-tryptophan oxidase with the amino acid sequence of SEQ ID NO: 2, derived from Streptomyces sp. TA-A0724, His-tagged, expressed in E. coli (protein)
# chain: B1 chain
# modifications: His tag; Streptomyces sp. TP-A0274
# notes: TA-A0724, His-tagged, expressed in E. coli
# Key:
# [1] = system: VioA, L-tryptophan oxidase derived from Chromobacterium violaceum, SEQ ID NO: 1; conditions: reported in Balibar and Walsh (2006) Biochemistry 45, 15444-15457; cited from earlier work
# [2] = system: L-amino acid oxidase derived from Coprinus sp.; conditions: Japanese Un-examined patent publication No. 2001-069974, read-out: Km value for L-tryptophan; cited from earlier work
# [3] = substrate: N[C@@H](Cc1c[nH]c2ccccc12)C(=O)O; test: Km value of L-tryptophan oxidase StaO for L-tryptophan (peroxidase-coupled, absorbance at 505 nm); assay type: biochemical, Streptomyces sp. TA-A0724; conditions: other: StaO, 20 mM tris-hydrochloric acid buffer pH 8.0, 30° C., 0-500 μM L-tryptophan, 0.5 mU/mL enzyme
# Text: StaO is an enzyme that has the amino acid sequence given in SEQ ID NO: 2 in the Sequence Listing, that has oxidase activity of acting on L-tryptophan in the presence of oxygen and water to produce hydrogen peroxide and ammonia, that has oxidase activity on L-phenylalanine falling within a range of 0 to 3% of the oxidase activity on L-tryptophan, and that has no oxidase activity on the protein-constituting amino acids other than L-tryptophan and L-phenylalanine. StaO can be derived from Streptomyces sp. TA-A0724. The gene encoding StaO was discovered in the biosynthesis gene cluster of staurosporine, an antibiotic produced by the above bacterium (Onaka, H., Taniguchi, S., Igarashi, Y., and Furumai, T. (2002) J Antibiot 55, 1063-1071). This gene has no significant homology with the VioA gene, nor is there any example of biological analysis of the genetic product. Thus, the properties of the genetic product were unknown. […]
# The supernatant of each solution of the ruptured expression strains was loaded onto an Ni Sepharose column made by GE Healthcare, washed with 20 mM Tris-HCl and 50 mM imidazole (pH 8.0), and then eluted with a solution of 20 mM Tris-HCl and 500 mM imidazole (pH 8.0) to purify and recover the target enzyme. The base sequences of these enzymes were determined, and are shown as SEQ ID NOS: 3 and 4. […]
# [4] = Substrate specificity for amino acids of L-tryptophan oxidase (peroxidase-coupled, absorbance at 505 nm); assay type: biochemical
# Experimental: A reaction solution of 20 mM tris-hydrochloric acid buffer (pH 8.0), 5 mM L-tryptophan, 1 mM phenol, 1 mM 4-aminoantipyrine, 15 U/mL horseradish-derived peroxidase, and some quantity of L-tryptophan oxidase enzyme solution was prepared and the change in absorbance at 505 nm was measured at 30° C. The mol absorbance coefficient of quinoneimine dye was considered to be 6.4 mM^−1·cm^−1. Activity generating 1 μmol of hydrogen peroxide per minute was defined as 1 U. The detection limit of this method was 0.5%.
# Reaction solutions each containing 20 mM of tris-hydrochloric acid buffer (pH 8.0), 1 mM of phenol, 1 mM of 4-aminoantipyrine, 15 U/mL of horseradish-derived peroxidase, 0.2 to 20 mU/mL of L-tryptophan oxidase, and 0.5 mM of an amino acid (one of the 20 protein-constituting amino acids) were prepared and the change in absorbance at 505 nm was measured at 30° C. The relative activity for each amino acid was calculated from the measurement values obtained, yielding the results given in Table 1. The detection limit of this method was 0.5%.
# [5] = Thermal stability (residual activity after 1 hour heat treatment); assay type: physicochemical; conditions: activity prior to heat treatment as 100, StaO in 20% glycerol, VioA in 10% glycerol
# Experimental: The activity was measured after heat treating StaO enzyme solutions containing 20% glycerol and VioA enzyme solutions containing 10% glycerol for 1 hour at 30, 40, 50, 60, and 70° C. […] At heat treatments of 50° C. and above, the residual activity dropped below the detection limit.
# [6] = Dependence on reaction temperature; assay type: biochemical
# Experimental: StaO and VioA activity measurement was conducted at reaction temperatures of 20, 30, 40, 50, and 60° C. An activity measurement reaction solution of 20 mM of tris-hydrochloric acid buffer (pH 8.0), 1 mM of L-tryptophan, 1 mM of phenol, 1 mM of 4-aminoantipyrine, 15 U/mL of horseradish-derived peroxidase, and L-tryptophan oxidase enzyme solution was employed. Everything in the above reaction solution but the peroxidase and L-tryptophan oxidase enzyme solution was admixed, and 10 minutes of preincubation was conducted at various temperatures. While maintaining the temperature of the reaction solution, the peroxidase and the L-tryptophan oxidase enzyme solution were added and the reaction was begun. The change in absorbance at 505 nm was rapidly measured. […] The effect of deactivation at high temperature became marked in StaO at 60° C. and in VioA at 50° C. and above, making it difficult to accurately measure the activity.
# [7] = Stability on storage at 4° C. at various glycerol concentrations; assay type: physicochemical
# Experimental: Glycerol was added to final concentrations of 0 to 50% (v/v) to StaO and VioA purified enzyme solutions. The enzymatic solutions were stored at 4° C., sampled over time, and the activity was measured. The change over time in the residual activity of StaO and VioA stored in the presence of various glycerol concentrations are given in FIGS. 7 and 8.
# [8] = 0.5 mM amino acid, pH 8.0, 30° C., No activity = at or below detection limit 0.5%
# [9] = activity at 20° C. as 100, 1 mM L-tryptophan, pH 8.0
# [10] = activity at 20° C. as 100, * = estimated value when greatly impacted by thermal deactivation
molecule,measurement,setting,value
N[C@@H](Cc1c[nH]c2ccccc12)C(=O)O [L-tryptophan],Km,[1],30 µM
same,Km,[2],650 µM
B1,Km,[3],19 μM μM
B2,"Relative activity, L-tryptophan","[4]; 0.5 mM amino acid, pH 8.0, 30° C., L-tryptophan = 100%",100%
same,"Relative activity, L-tyrosine",[4]; [8],No activity
same,"Relative activity, other amino acids (17 listed in the footnote)",[4]; [8],No activity
same,Reactivity to amino acids other than L-tryptophan,[4]; relative activity below the detection limit (0.5%),did not exhibit reactivity
same,Relative (residual) activity following heat treatment at 30° C.,[5],73
same,Relative (residual) activity following heat treatment at 40° C.,[5],1
same,Relative (residual) activity following heat treatment at ≧50° C.,[5],<1
same,Relative activity at reaction temperature 20° C.,[6]; [9],100
same,Relative activity at reaction temperature 30° C.,[6]; [9],156
same,Relative activity at reaction temperature 40° C.,[6]; [9],268
same,Relative activity at reaction temperature 50° C.,[6]; [10],427
same,Relative activity at reaction temperature 60° C.,[6]; [10],480*
same,Reaction temperature at which the effect of deactivation became marked,[6]; activity measurement at 20-60° C.,60 °C
same,Stability of enzyme solution on storage,[7]; 30% or more of glycerol added,high stability
same,Stability of enzyme solution on storage,"[7]; buffer only, no glycerol",unstable
